Experimental data: publication PMC1560149, “The DNA polymerase activity of Pol ε holoenzyme is required for rapid and efficient chromosomal DNA replication in Xenopus egg extracts” (BMC Biochemistry, 2006)

Target: T1, p17 (the fourth subunit of xPol ε complex) (Xenopus, UniProt Q6WSQ3 1-147)
T1 construct: p17 subunit of Xenopus DNA polymerase epsilon, 147 amino acids; also called xPol ε p17; source: sf21 insect cells, baculovirus, co-expressed, in crude extract
T1 sequence (looked up): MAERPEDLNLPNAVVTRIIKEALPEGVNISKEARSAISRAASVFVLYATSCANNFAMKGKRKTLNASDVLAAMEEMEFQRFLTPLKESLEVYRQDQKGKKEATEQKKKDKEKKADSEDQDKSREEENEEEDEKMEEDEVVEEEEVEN
Assay: not stated; data not shown; p12 and p17 in insect cells

B1: p12 (the third subunit of xPol ε complex) (natural protein, Xenopus, UniProt Q0EAE6 1-116, looked up)
chain: MAAEVAAPESLEGSGSQEDAGPSSPPAAHPAPCPSKQARLPLSRIKALMKADPDLSLASQESVFVISKATELFIETIAKDAYLYAQQGKRKTLQRKDLDNAIDAIDEFAFLEGTLD
notes: p12 subunit of Xenopus DNA polymerase epsilon, 116 amino acids; also called xPol ε p12; source: sf21 insect cells, baculovirus, co-expressed, in crude extract
stoichiometry N: 1
